Earlier results on one substance are cited in article PMC5711038.

The target of this data set is Fbxw7 substrate receptor (Homo sapiens) (UniProt Q969H0). The data set is described as follows: FRET.
Chain of UniProt Q969H0 (Q969H0 whole entry): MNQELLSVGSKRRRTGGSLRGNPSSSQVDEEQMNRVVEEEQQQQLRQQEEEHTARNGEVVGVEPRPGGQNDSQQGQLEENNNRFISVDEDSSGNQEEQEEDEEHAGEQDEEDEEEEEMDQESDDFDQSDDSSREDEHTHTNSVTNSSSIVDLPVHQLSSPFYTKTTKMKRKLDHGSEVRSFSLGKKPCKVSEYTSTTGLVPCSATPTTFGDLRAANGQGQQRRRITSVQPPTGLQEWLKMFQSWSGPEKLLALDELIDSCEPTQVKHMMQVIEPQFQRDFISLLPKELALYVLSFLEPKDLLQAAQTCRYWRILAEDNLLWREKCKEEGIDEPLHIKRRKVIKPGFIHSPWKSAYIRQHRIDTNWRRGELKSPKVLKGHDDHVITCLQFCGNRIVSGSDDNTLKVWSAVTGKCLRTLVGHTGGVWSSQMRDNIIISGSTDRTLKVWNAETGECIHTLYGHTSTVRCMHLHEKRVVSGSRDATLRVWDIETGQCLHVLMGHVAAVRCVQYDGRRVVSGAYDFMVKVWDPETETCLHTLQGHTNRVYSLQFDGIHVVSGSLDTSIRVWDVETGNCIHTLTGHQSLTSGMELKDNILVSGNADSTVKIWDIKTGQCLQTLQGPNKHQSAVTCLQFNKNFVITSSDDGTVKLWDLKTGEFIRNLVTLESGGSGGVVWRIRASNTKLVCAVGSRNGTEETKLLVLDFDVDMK

As to Cul1 (from UniProt Q13616), the Kd is 1 pM.

In general, Kd refers to a measure of binding affinity in units of concentration.
